Source: patent US20220226473A1, “Nucleic acid nanocarrier drug and preparation method thereof, pharmaceutical composition and application thereof” (BAI YAO ZHI DA (BEIJING) NANOBIO TECHNOLOGY CO., LTD., priority 2018, published 2022)
{Biotin} = biotin of the strand

Experiments:
Assay type in all cases: physicochemical
[1] = Electric potential (zeta potential) measurement of self-assembly products; settings: result over 3 detections, at 25 DEG C.
Method: Measurement method: preparing a potential sample (the self-assembly product is dissolved in ultrapure water) and putting into a sample pool, opening a sample pool cover of an instrument, and placing the instrument;
opening software, clicking a menu MeasUre€ManUal, so a manual measurement parameter setting dialog box appears;
setting a software detection parameter;
and then clicking Ok to complete the settings, after a measurement dialog box appears, clicking start to start.
and then clicking Ok to complete the settings, after a measurement dialog box appears, clicking Start to start.
Measurement method: preparing a potential sample (the self-assembly product is dissolved in ultrapure water) and putting into a sample pool, opening a sample pool cover of an instrument, and placing the instrument:
Measurement result potential detection results of the 7 groups of the extension fragment deformation+core short-sequence RNA nanoparticles at 25 DEG C. are as follows:
setting a software detection parameter; and then
clicking Ok to complete the settings, after a measurement dialog box appears, clicking Start to start.
Measurement result potential detection results of the 7 groups of the extension fragment deformation+core short-sequence DNA nanoparticles at 25 DEG C. are as follows: […]

[2] = TM value detection by solubility curve method (SYBR Green I); settings: RNA nanoparticles; temperature corresponding to ½ RFUmax in 20 to 90 DEG C.
Method: A solubility curve method is used to detect TM values of the 7 groups of the extension fragment deformation+core short-sequence RNA nanoparticles, and the samples are consistent with the potential samples.
(1) After the sample is diluted with ultrapure water, 5 μg of the diluted sample is mixed with 2 μL of SYBR Green I dye (diluted by 1:200), a final volume is 20 μL, and the dilution concentration is as follows:
(2) It is incubated for 30 min in the dark at a room temperature; and
(3) On-machine detection is performed, a program is set to start at 20 DEG C., the temperature rises per second from 0.1 DEG C. to 95 DEG C., and reading is performed every 5 s.
Due to the particularity of the RNA samples, a temperature corresponding to ½ RFUmax in a range of 20 to 90 DEG C. is used as a sample Tm value in this test.
A solubility curve method is used to detect TM values of the 7 groups of the extension fragment deformation+core short-sequence DNA nanoparticles, and the samples are consistent with the potential samples.
(1) After the sample is diluted with ultrapure water, 5 μg of the diluted sample is mixed with 2 μL of SYBR Green I dye (diluted by 1:200). a final volume is 20 μL, and the dilution concentration is as follows: […]

[3] = Drug loading rate of nucleic acid nanoparticles (chemical loading, absorbance standard curve); parameters: unit not given here; settings: chemical loading method of Embodiment 5
Source text: According to the chemical loading method (unless otherwise specified, the method is the same as that of Embodiment 5) of Embodiment 5, the RNA nanoparticles formed by the self-assembly of the previous R-15, R-16, R-17, R-18, R-19, R-20 and R-21 in Embodiment 9, and the DNA nanoparticles formed by the self-assembly of the D-8, D-9, D-10, D-11, D-12, D-13 and D-14 in Embodiment 10 are respectively used as doxorubicin loading carriers, doxorubicin loading rates measured are respectively as follows:
According to the chemical loading method (unless otherwise specified, the method is the same as that of Embodiment 5) of Embodiment 5, the DNA nanoparticles formed by the self-assembly of the previous D-10 and D-14 in Embodiment 10 are used as a daunorubicin loading carrier.
According to a chemical loading method of Embodiment 5 (unless otherwise specified, the method is the same as that of Embodiment 5, the same molar number of the epirubicin is used as a loading amount), nucleic acid nanoparticles (a molecular weight is 29550, it is similar to the RNA nanoparticles in Embodiment 1, and a difference is that a fluorescent label on a c-strand is Cy5) are used as a carrier, and respectively loaded with: epirubicin, methotrexate, pirarubicin, daunorubicin, […], 10-hydroxycamptothecin, aspirin and gemcitabine.
Herein, when a standard curve is drawn, the absorbance of the above drugs on the microplate reader is measured respectively. The absorbance of the epirubicin, methotrexate, pirarubicin, daunorubicin, […], 10-hydroxycamptothecin, aspirin and gemcitabine is respectively detected at the following wavelengths: 492 nm, 303 nm, 492 nm, 492 nm, 265 nm, 384 nm, 225 nm and 268 nm. The standard curves obtained correspondingly are respectively shown in FIG. 48a, FIG. 49, FIG. 50sa, FIG. 51, FIG. 52, FIG. 53, FIG. 54a and FIG. 55. […]

[4] = Particle size measurement (DLS hydrodynamic size); settings: DLS hydrodynamic size
Source text: 1. Preparing a potential sample (conventional-sequence DNA self-assembly product D-7) and putting into a sample pool, opening a sample pool cover of an instrument, and placing the instrument;
2. opening software, and clicking a menu, so a manual measurement parameter setting dialog box appears;
3. setting a software detection parameter; and then
4. clicking Ok to complete the settings, when a measurement dialog box appears, clicking Start to start, a DLS measurement value result of a hydrodynamic size of the self-assembly product D-7 is shown below in Table 40: […]

| Molecule | Potential ZP, Experiment result [1] | TM value (° C.) [2] | doxorubicin loading rate [3] | Mean particle size (nm) [4] |
| --- | --- | --- | --- | --- |
| R-17: extension fragment deformation+core short-sequence RNA nanoparticle, SEQ ID NO: 126-128, 3′ biotin, 2′F (nucleic acid, chain 1: 2'-fluoro at CU, RNA at AG, 3' {Biotin}, backbone not given here; chain 2: 2'-fluoro at CU, RNA at AG, backbone not given here; chain 3: 2'-fluoro at CU, RNA at AG, backbone not given here; three-strand RNA nanoparticle) chain 1: GCGGCGAGCGGCGAGGAGCGUUGGGGCCGGAGGCCGG chain 2: CCGGCCUCCGGCCCCUUCGCCGCCAGCCGCC chain 3: GGCGGCAGGCGGCCAUAGCCCUCGCCGCUCGCCGC | −23.50 mV | 55.2 °C | 30.9 | 7.592 nm |
| R-19: extension fragment deformation+core short-sequence RNA nanoparticle, SEQ ID NO: 132-134, 3′ biotin, 2′F (nucleic acid, chain 1: 2'-fluoro at CU, RNA at AG, 3' {Biotin}, backbone not given here; chain 2: 2'-fluoro at CU, RNA at AG, backbone not given here; chain 3: 2'-fluoro at CU, RNA at AG, backbone not given here; three-strand RNA nanoparticle carrier) chain 1: GCGGCGAGCGGCGAGCAGCGUUCGGGCCGGAGGCCGG chain 2: CCGGCCUCCGGCCCGUUCGGCCCCAGCCGCC chain 3: GGCGGCAGGGGCCCAUAGCGCUCGCCGCUCGCCGC | −18.30 mV | 54.0 °C | 27.1 | 6.936 nm |
| R-18: extension fragment deformation+core short-sequence RNA nanoparticle, SEQ ID NO: 129-131, 3′ biotin, 2′F (nucleic acid, chain 1: 2'-fluoro at CU, RNA at AG, 3' {Biotin}, backbone not given here; chain 2: 2'-fluoro at CU, RNA at AG, backbone not given here; chain 3: 2'-fluoro at CU, RNA at AG, backbone not given here; RNA nanoparticle drug carrier) chain 1: GCGGCGAGCGGCGAGCAGCGUUCGGGCCGGAGGCCGG chain 2: CCGGCCUCCGGCCCGUUCGGCGCCAGCCGCC chain 3: GGCGGCAGGCGCCCAUAGCGCUCGCCGCUCGCCGC | −21.27 mV | 54.5 °C | 34.1 | 7.520 nm |
| R-21: extension fragment deformation+core short-sequence RNA nanoparticle, SEQ ID NO: 138-140, 3′ biotin, 2′F (nucleic acid, chain 1: 2'-fluoro at CU, RNA at AG, 3' {Biotin}, backbone not given here; chain 2: 2'-fluoro at CU, RNA at AG, backbone not given here; chain 3: 2'-fluoro at CU, RNA at AG, backbone not given here; three-strand RNA nanoparticle carrier) chain 1: GCGGCGAGCGGCGACGAGCGUUGCGGCCGGAGGCCGG chain 2: CCGGCCUCCGGCCGCUUCGGCGCCAGCCGCC chain 3: GGCGGCAGGCGCCCAUAGCCGUCGCCGCUCGCCGC | −16.10 mV | 65.0 °C | 20.1 | 6.720 nm |
| R-20: extension fragment deformation+core short-sequence RNA nanoparticle, SEQ ID NO: 135-137, 3′ biotin, 2′F (nucleic acid, chain 1: 2'-fluoro at CU, RNA at AG, 3' {Biotin}, backbone not given here; chain 2: 2'-fluoro at CU, RNA at AG, backbone not given here; chain 3: 2'-fluoro at CU, RNA at AG, backbone not given here; three-strand RNA nanoparticle carrier) chain 1: GCGGCGAGCGGCGACGAGCGUUGCGGCCGGAGGCCGG chain 2: CCGGCCUCCGGCCGCUUCGCCGCCAGCCGCC chain 3: GGCGGCAGGCGGCCAUAGCCGUCGCCGCUCGCCGC | −17.90 mV | 59.5 °C | 30.2 | 7,110 nm |
